Source: article PMC13486763

Target: Porcine RNA polymerase II (porcine) (UniProt I3LGP4)
Test: mass photometry; Pol II or Pol II-Gdown1 complex with GPN1-GPN3 and/or RPAP2 in a 1:2:2 molar ratio, 30 minutes at 4 °C; measured at 20 nM; 20 mM HEPES-NaOH pH 7.9, 100 mM NaCl, 2 mM MgCl2, 10 µM ZnCl2, 1 mM DTT

- stoichiometry N: 2
Substance: Porcine RNA polymerase II (from UniProt I3LGP4 127-1300; P60899 1-125; A0A4X1VYD0 1-67; A0A8D0JYF1 1-58) (complex)
